For data set [1], the system named is cerebellar granule neurons (CGNs). Briefly: FM4-64 SV turnover in transfected cerebellar granule neurons (Example 1). As to conditions: for total SV recycling pool (FM4-64): two sequential KCl stimuli. The class given is cell-based, rat. As to the method: Primary cerebellar granule neuron (CGN) cultures were prepared from 7-day old Sprague-Dawley rat pups as previously described (Tan et al. 2003). In brief, neurons were plated on poly-D-lysine coated glass coverslips at a density of 1.5×10^5 cells/coverslip. Neurons were cultured in MEM containing Earle's salts plus 10% (v/v) foetal calf serum, 25 mM KCl, 30 mM glucose, 2 mM glutamine, 100 U/ml penicillin and 100 μg/ml streptomycin at 37° C., in a humidified atmosphere of 5% CO2. The culture medium was supplemented with 10 μM cytosine arabinoside after 24 hours. Transfections were carried out using an established calcium phosphate precipitation protocol. CGNs were transiently transfected with 1.5 μg of DNA between 7-10 days in vitro and were used 48 h later.
The effect of overexpression of dynamin I-GFP constructs on SV recycling in CGNs was monitored using the styryl dye FM4-64 (Molecular Probes). The extent of FM4-64 loading was quantified by normalising the fluorescence value at the start of stimulation to an arbitrary value and monitoring the total decrease on unloading with a dual KCl stimulus. The rate of FM4-64 unloading (as a measure of SV exocytosis) was estimated by determining the time taken for individual nerve terminals to lose 50% of their dye content on stimulation of unloading. These values were normalised to untransfected nerve terminals within the same field of view. SV exocytosis and recycling was also monitored using the pH-sensitive VAMP-GFP (synaptopHluorin). Dynamin constructs linked to mCerulean rather than to GFP were used in this part of the study. CGNs were co-transfected with synaptopHluorin and either DynI^WT-mCerulean, DynI^dmA-mCerulean or Dyn^dmE-mCerulean and stimulated with 50 mM KCl for 20 sec. The evoked synaptopHluorin response was recorded at 500 nm excitation and 510-550 nm emission (mCerulean fluorescence was not detectable at this wavelength). Co-expression of dynamin I was confirmed by recording at 430 nm excitation. Responses were analysed by calculating the increased fluorescence of synaptopHluorin over baseline for individual nerve terminals and then normalising the maxima and minima to 1 and 0.
To show the key role of the phosphorylation sites by independent methods in cultured neurons their role in SV turnover in nerve terminals of CGNs transfected with dynamin I-GFP was examined. SV turnover in neurons transfected with DynI^WT-GFP was indistinguishable from that in untransfected neurons (FIG. 6a-c). […] The extent of HM4-64 accumulation and thus SV turnover, was quantified from the change in fluorescence (AF) by unloading the CGN terminals with two sequential KCl stimuli (S1 and S2) (FIG. 6j). The total SV recycling pool was reduced by approximately 70% in CGNs transfected with DynI^dmA-GFP (28±3.5% of control) and 40% with DynI^dmE-GFP (64.4±6.2% of control) (FIG. 6k). However, transfection of DynI^WT-GFP had no detectable effect (100.1±5.2% of control, FIG. 6k).

For data set [2] the test system is unchanged. The data set can be described thus: FM4-64 synaptic vesicle recycling in transfected CGNs (Example 2). As to conditions: single 50 mM KCl stimulus. The class given is cell-based, rat. As to the method: The effect of overexpression of dynamin constructs on synaptic vesicle recycling in CGNs was monitored using the styryl dye FM4-64. Neurons were removed from the culture medium and left to repolarise for 10 min in incubation medium (170 mM NaCl, 3.5 mM KCl, 0.4 mM KH2PO4, 20 mM TES (N-tris[hydroxy-methyl]-methyl-2-aminoethane-sulphonic acid), 5 mM NaHCO3, 5 mM glucose, 1.2 mM Na2SO4, 1.2 mM MgCl2, 1.3 mM CaCl2, pH 7.4). Neurons were then loaded with FM4-64 by evoking SV recycling using KCl stimulation medium (incubation medium supplemented with 50 mM KCl and 10 μM FM4-64, 50 mM NaCl being removed to maintain osmolarity) for 2 min. Cells were washed with incubation medium and mounted on an epifluorescence microscope (Olympus IX81). After 10 min, FM4-64 was unloaded from the cells by exposure to a 30 s pulse of stimulation medium. Transfected neurons were visualised using a Olympus Plan-Apochromat x40 objective at 480 nm excitation and a band-pass emission filter of 515-555 nm. FM4-64 unloading was monitored at 555 nm excitation and a long pass emission filter of 600 nm. The decrease in fluorescence intensity of FM4-64 loaded nerve terminals on stimulation was visualised using a Hammamatsu Orca-ERG CCD digital camera (Hammamatsu City, Japan) and Metamorph 6.3 imaging software (Molecular Devices, Downingtown, Pa.). The extent of FM4-64 unloading was quantified by normalising the fluorescence value at the start of stimulation to an arbitrary value and monitoring the total decrease in fluorescence on unloading with the KCl stimulus. The kinetics of FM4-64 unloading were estimated by normalising the start and completion of unloading to 1 and 0 respectively. Other methods employed in this study are as described in Example 1.
Synaptic vesicle turnover in neurons transfected with DynI-WT-GFP was indistinguishable from that in untransfected neurons. […] The extent of synaptic vesicle turnover was quantified by unloading the terminals with a single 50 mM KCl stimulus, which is considered mild. The total synaptic vesicle recycling pool was unaffected in CGNs transfected with DynI-WT-GFP, while after transfection with DynI-2B-GFP it was reduced. The inhibition can be solely accounted for by an effect on SV endocytosis, since there was no effect on the kinetics of dye unloading. Next, the effects of DynI-PB2-GFP and DynI-3B-GFP on SVE were examined. These two mutants were chosen since they specifically fail to bind syndapin I and endophilin I, respectively, providing a clear distinction between them.
Again, there was no effect on exocytosis, indicating an inhibition of SVE.

B1: DynI^dmA-GFP: Transfected GFP-tagged dynamin I double mutant, Ser-774 and Ser-778 to Ala (non-phosphorylatable) (protein)
chain: MGNRGMEDLIPLVNRLQDAFSAIGQNADLDLPQIAVVGGQSAGKSSVLENFVGRDFLPRGSGIVTRRPLVLQLVNSTTEYAEFLHCKGKKFTDFEEVRLEIEAETDRVTGTNKGISPVPINLRVYSPHVLNLTLVDLPGMTKVPVGDQPPDIEFQIRDMLMQFVTKENCLILAVSPANSDLANSDALKIAKEVDPQGQRTIGVITKLDLMDEGTDARDVLENKLLPLRRGYIGVVNRSQKDIDGKKDITAALAAERKFFLSHPSYRHLADRMGTPYLQKVLNQQLTNHIRDTLPGLRNKLQSQLLSIEKEVDEYKNFRPDDPARKTKALLQMVQQFAVDFEKRIEGSGDQIDTYELSGGARINRIFHERFPFELVKMEFDEKELRREISYAIKNIHGIRTGLFTPDLAFEATVKKQVQKLKEPSIKCVDMVVSELTSTIRKCSEKLQQYPRLREEMERIVTTHIREREGRTKEQVMLLIDIELAYMNTNHEDFIGFANAQQRSNQMNKKKTSGNQDEILVIRKGWLTINNIGIMKGGSKEYWFVLTAENLSWYKDDEEKEKKYMLSVDNLKLRDVEKGFMSSKHIFALFNTEQRNVYKDYRQLELACETQEEVDSWKASFLRAGVYPERVGDKEKASETEENGSDSFMHSMDPQLERQVETIRNLVDSYMAIVNKTVRDLMPKTIMHLMINNTKEFIFSELLANLYSCGDQNTLMEESAEQAQRRDEMLRMYHALKEALSIIGDINTTTVSTPMPPPVDDSWLQVQSVPAGRRAPTSAPTPQRRAPAVPPARPGSRGPAPGPPPAGSALGGAPPVPSRPGASPDPFGPPPQVPSRPNRAPPGVPSRSGQASPSRPESPRPPFDL
modifications: left off: large carriers
For the molecule B1, in data set [1], the “reduction of total SV recycling pool / SV turnover” value is listed as “approximately 70%” and the “total SV recycling pool (FM4-64)” value is on record as 28±3.5 % of control.

B2: DynI-PB2-GFP: GFP-tagged dynamin I with Arg-772 and Arg-773 mutated to Glu; fails to bind syndapin I (protein)
chain: MGNRGMEDLIPLVNRLQDAFSAIGQNADLDLPQIAVVGGQSAGKSSVLENFVGRDFLPRGSGIVTRRPLVLQLVNSTTEYAEFLHCKGKKFTDFEEVRLEIEAETDRVTGTNKGISPVPINLRVYSPHVLNLTLVDLPGMTKVPVGDQPPDIEFQIRDMLMQFVTKENCLILAVSPANSDLANSDALKIAKEVDPQGQRTIGVITKLDLMDEGTDARDVLENKLLPLRRGYIGVVNRSQKDIDGKKDITAALAAERKFFLSHPSYRHLADRMGTPYLQKVLNQQLTNHIRDTLPGLRNKLQSQLLSIEKEVDEYKNFRPDDPARKTKALLQMVQQFAVDFEKRIEGSGDQIDTYELSGGARINRIFHERFPFELVKMEFDEKELRREISYAIKNIHGIRTGLFTPDLAFEATVKKQVQKLKEPSIKCVDMVVSELTSTIRKCSEKLQQYPRLREEMERIVTTHIREREGRTKEQVMLLIDIELAYMNTNHEDFIGFANAQQRSNQMNKKKTSGNQDEILVIRKGWLTINNIGIMKGGSKEYWFVLTAENLSWYKDDEEKEKKYMLSVDNLKLRDVEKGFMSSKHIFALFNTEQRNVYKDYRQLELACETQEEVDSWKASFLRAGVYPERVGDKEKASETEENGSDSFMHSMDPQLERQVETIRNLVDSYMAIVNKTVRDLMPKTIMHLMINNTKEFIFSELLANLYSCGDQNTLMEESAEQAQRRDEMLRMYHALKEALSIIGDINTTTVSTPMPPPVDDSWLQVQSVPAGEESPTSSPTPQRRAPAVPPARPGSRGPAPGPPPAGSALGGAPPVPSRPGASPDPFGPPPQVPSRPNRAPPGVPSRSGQASPSRPESPRPPFDL
modifications: left off: large carriers
Consider B2, for which, in data set [2], the “total synaptic recycling pool (FM4-64)” value is reported as 59.5±4.3 % of control.

B3: DynI^dmE-GFP: Transfected GFP-tagged dynamin I double mutant, Ser-774 and Ser-778 to Glu (pseudo-phosphorylation) (protein)
chain: MGNRGMEDLIPLVNRLQDAFSAIGQNADLDLPQIAVVGGQSAGKSSVLENFVGRDFLPRGSGIVTRRPLVLQLVNSTTEYAEFLHCKGKKFTDFEEVRLEIEAETDRVTGTNKGISPVPINLRVYSPHVLNLTLVDLPGMTKVPVGDQPPDIEFQIRDMLMQFVTKENCLILAVSPANSDLANSDALKIAKEVDPQGQRTIGVITKLDLMDEGTDARDVLENKLLPLRRGYIGVVNRSQKDIDGKKDITAALAAERKFFLSHPSYRHLADRMGTPYLQKVLNQQLTNHIRDTLPGLRNKLQSQLLSIEKEVDEYKNFRPDDPARKTKALLQMVQQFAVDFEKRIEGSGDQIDTYELSGGARINRIFHERFPFELVKMEFDEKELRREISYAIKNIHGIRTGLFTPDLAFEATVKKQVQKLKEPSIKCVDMVVSELTSTIRKCSEKLQQYPRLREEMERIVTTHIREREGRTKEQVMLLIDIELAYMNTNHEDFIGFANAQQRSNQMNKKKTSGNQDEILVIRKGWLTINNIGIMKGGSKEYWFVLTAENLSWYKDDEEKEKKYMLSVDNLKLRDVEKGFMSSKHIFALFNTEQRNVYKDYRQLELACETQEEVDSWKASFLRAGVYPERVGDKEKASETEENGSDSFMHSMDPQLERQVETIRNLVDSYMAIVNKTVRDLMPKTIMHLMINNTKEFIFSELLANLYSCGDQNTLMEESAEQAQRRDEMLRMYHALKEALSIIGDINTTTVSTPMPPPVDDSWLQVQSVPAGRREPTSEPTPQRRAPAVPPARPGSRGPAPGPPPAGSALGGAPPVPSRPGASPDPFGPPPQVPSRPNRAPPGVPSRSGQASPSRPESPRPPFDL
modifications: left off: large carriers
Consider B3, for which, in data set [1], the “reduction of total SV recycling pool / SV turnover” value was about 40% and the “total SV recycling pool (FM4-64)” value is listed as 64.4±6.2 % of control.
